# ± gives the standard deviation.
# Assay: protein stability index of a GFP-peptide fusion (GPS, HEK-293T) (PSI 1-6); higher = more stable
# [1] = treatment: DMSO, c terminus: a fixed tail appended
# [2] = treatment: MLN4924 1 uM, 8 h, c terminus: a fixed tail appended
# 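Further: 24-mer peptide tiles fused after GFP, lentivirally expressed, FACS-sorted into six equal bins by GFP/DsRed ratio, decoded by Illumina sequencing, PSI is the read-weighted mean bin number.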
Sequence,protein stability index [1],protein stability index [2],"protein stability index (treatment: DMSO, c terminus: native)","protein stability index (treatment: MLN4924 1 uM, 8 h, c terminus: native)"
AYVAEREDELSLVKGSRVTVMEKC [NCK2],4.31 ± 0.31,4.48 ± 0.19,,
EKLGSGEPSHSVKVHTVPKPGKGA [ATE1],5.04 ± 0.23,5 ± 0.22,,
PPAEEAEQPGALAREFLAAMEPEP [FKBP8],5.49 ± 0.45,5.57 ± 0.072,,
EMCHKPDVELLQDLGDIVARSESV [TRIM43],4.66 ± 0.15,4.62 ± 0.24,,
NGDPESVASLHWDGGALLGVLQYR [ADAMTS4],2.29 ± 0.74,2.54 ± 0.35,,
GQCGENLAWASYDQTGKEVADRWY [GLIPR2],2.68 ± 0.31,3.13 ± 0.26,,
GEKPYKCTHCSKSFRQRAGLIMHQ [ZNF449],3.59 ± 0.46,3.75 ± 0.27,,
WDLSEAWMQANYDPLSDSDSMTSQ [ELOA2],4.34 ± 0.33,4.45 ± 0.21,,
EADPEMIKRAEDYGPVEVISHWHP [CLPTM1],4.42 ± 0.24,4.26 ± 0.38,,
TSCIVIILIIISVIVQIKQPRKKY [NETO1],3.26 ± 0.17,3 ± 0.16,,
ITVAELREAVPALLGEPLAGPELD [CABP4],3.7 ± 0.39,3.84 ± 0.44,,
DGGEPQSVQVDGQARTQKLQGLIP [TNXB],,5.22 ± 0.99,,
LVVNIDNAKLASDDFRSKYQTEQS [KRT34],3.65 ± 0.2,3.62 ± 0.2,,
EFHPHHCNTFVYSSSKGTIRLCDM [PPP2R2B],2.31 ± 0.29,2.15 ± 0.18,,
MQEDRDGSCSTVGGVGYGDSKDCI [ZNF277],5.04 ± 0.28,5.1 ± 0.18,,
YWKDTRTSGVVFTGLMVSLLCLLH [RTN2],2.3 ± 0.24,2.2 ± 0.28,,
TEHEKKQKLETDAMFRLEHGEADR [YJU2B],5.32 ± 0.12,5.46 ± 0.3,,
PAFDALGQLTGGYKPNPQIYVKLI [OAS1],2.34 ± 0.14,2.15 ± 0.26,,
LNDIFHLLKSHTNVLSVNLPDNFT [TPH1],2.35 ± 0.32,2.05 ± 0.41,,
CFVEFHEHRHAAAALAAMNGRKIM [TIA1],2.71 ± 0.14,2.81 ± 0.17,,
RQGPKEPPRKSGSFHSSGEKQKQP [PBXIP1],4.86 ± 0.27,5.17 ± 0.15,,
LLKKKPPQQQHHKAKRNRTCRPPS [ANKRD17],3.93 ± 0.22,4 ± 0.29,,
ASSRASENQSPSSSNYFSPRESTD [ZBTB22],5.3 ± 0.29,5.167 ± 0.043,,

Sequence,protein stability index [1],protein stability index [2],"protein stability index (treatment: DMSO, c terminus: native)","protein stability index (treatment: MLN4924 1 uM, 8 h, c terminus: native)"
QELLERGLLQLDHRGLRCSWEGLA [RSAD1],2.31 ± 0.2,2.6 ± 0.23,,
ELEKAHLALIDYLTQKRSQLVKKL [VPS39],2.28 ± 0.39,2.58 ± 0.23,,
EQVANKGEPLALPLDAGEYCVPRG [BEX1],4.86 ± 0.29,4.79 ± 0.27,,
AEMLGSVVGNWQYFFPVIFSKASS [MAGEA3],2.17 ± 0.31,2.21 ± 0.35,,
LKIYNKREEDFPSLREYNDFLEEV [MNAT1],3.19 ± 0.39,3.68 ± 0.72,,
QRARKEREKEDYLHLKRQPKRRWL [RHOBTB2],4.05 ± 0.23,4.16 ± 0.23,,
EQHISKCKKAFREGSRKSSRVKGS [KMT2E],4.59 ± 0.26,4.63 ± 0.25,,
QFFTKGYQETISDVLNDAIFDEDH [GCH1],4.01 ± 0.33,3.92 ± 0.07,,
ISDALIRRVHLTEDQWGKGTLTPR [TRIM9],2.92 ± 0.14,3.11 ± 0.41,,
IRVWFQNKRCKDKKKSILMKQLQQ [ISL2],2.08 ± 0.26,2.17 ± 0.23,,
CDPGLTAFEPEALGNLVEGMDFHR [CAMK2D],4.33 ± 0.43,4.21 ± 0.24,,
SRKVTTNKLLLSIIILLELAILGG [VTI1B],2.98 ± 0.7,2.84 ± 0.65,,
CAAVLPGKPGDRNCPEFPPPDRTL [RSPH3],4.16 ± 0.42,3.76 ± 0.16,,
KNNICFMSHHQEELVPKQPQKRKP [SLC2A12],4.31 ± 0.14,4.64 ± 0.3,,
MAAGTSSYWEDLRKQARQLENELD [GOSR1],4.11 ± 0.15,3.99 ± 0.25,,
RVKREFEPASAREAPASVVPFVRV [USP39],3.33 ± 0.57,3.5 ± 0.24,,
EAEKDGVKVPTTLAEYCIKTKVPS [UBE2R2],5.08 ± 0.19,5.15 ± 0.2,,
ITTKTADGKCAYRASYSDGKLKAP [MLH1],3.78 ± 0.2,3.67 ± 0.12,,
DKCSAPKIWRTPNGKTIEMDTQFT [IQUB],3.53 ± 0.28,3.6 ± 0.21,,
GKNPDVDTSFLPDRDREEEENRLR [FAM50A],5.26 ± 0.11,5.49 ± 0.38,,
DVKRLGKQNARFLTSMRRLSSIKR [STX11],2.9 ± 0.35,2.98 ± 0.42,,
VVAGDTVSTGSTDNSPTSNSLEGG [ADAMTSL2],5.39 ± 0.4,5.48 ± 0.15,,
EPWLPLTDGRSPRRSRDPGYDHLW [PLEKHN1],3.68 ± 0.14,3.57 ± 0.26,,

Sequence,protein stability index [1],protein stability index [2],"protein stability index (treatment: DMSO, c terminus: native)","protein stability index (treatment: MLN4924 1 uM, 8 h, c terminus: native)"
SRILNEMRDQYEQMAEKNRRDAET [KRT16],4.65 ± 0.27,4.78 ± 0.27,,
SNYYVAHPPVTYSQPYPTWLPCN [TENT5C],,,3.25 ± 0.19,3.44 ± 0.68
HAVSTCHFCVDDTKLLSGSYDCTV [WDR88],2.46 ± 0.26,2.44 ± 0.33,,
MLKIHRSDPQLIVQLRFCGRQPCG [TRADD],2.46 ± 0.73,1.92 ± 0.39,,
AYDFHGSWEKVTGHNSPLYKRQEE [CHIT1],4.33 ± 0.37,4.14 ± 0.45,,
AKNQSDEAKEAKGSGYEKLGPSRD [RTP4],5.47 ± 0.16,5.34 ± 0.26,,
KHAKKEREESLPNLLQYVRMPLLT [KLHL12],3.26 ± 0.26,3.28 ± 0.16,,
IEETYSKAMAKLSKLASNGTPMGT [FCHO1],3.4 ± 0.073,3.78 ± 0.29,,
MFFKDRFYMRTNPFYPEVELNFIS [MMP1],2.44 ± 0.73,2.71 ± 0.68,,
TEDCPTGSALTFREEQCAAYNHRT [ADAMTS4],5.09 ± 0.22,5.03 ± 0.12,,
RFDGLPAVLGFPGFSSGRHRWQVD [TRIM15],2.62 ± 0.12,2.54 ± 0.18,,
LPIIQSNQVSSNSWGIAGETELAL [DLC1],3.52 ± 0.48,3.63 ± 0.2,,
QQIGDAIRMIVRGTLGSCSSSSEC [PLK2],2.1 ± 0.23,2.08 ± 0.39,,
EQLREALHEALLEYEAGRAGPGGG [ESRRA],3.92 ± 0.27,4.05 ± 0.39,,
AWHCSESGQRLGGYRTSAVASGLQ [WDFY2],2.84 ± 0.14,3.1 ± 0.16,,
QLHKPLAEGTPRSNHSAQDSAVEN [IKZF1],5.35 ± 0.35,5.39 ± 0.3,,
ELQQRNPKAERLRWSPAQEESFRQ [ZNF232],3.3 ± 0.37,3.49 ± 0.77,,
GGTDPHGYHQVPGSAAPGSPLAAD [FOXJ1],5.11 ± 0.099,5.234 ± 0.051,,
AALPPVPSPPAAPSVADNLLASSD [SERTAD1],5.46 ± 0.14,5.35 ± 0.3,,
SLNELMIVIGILSAYISNYAFANV [SLC2A12],3.35 ± 0.31,3.18 ± 0.39,,
ACHPFLLGPPLVRKRIHDSRVAGF [TOR1AIP2],2.51 ± 0.39,2.5 ± 0.18,,
PSPGVLCGSARPKPYDPPGEKMVA [ATF4],4.37 ± 0.28,4.6 ± 0.23,,
DEDDSTSRFSSSTEQSSASRLMRR [DVL3],5.28 ± 0.25,5.36 ± 0.26,,

Sequence,protein stability index [1],protein stability index [2],"protein stability index (treatment: DMSO, c terminus: native)","protein stability index (treatment: MLN4924 1 uM, 8 h, c terminus: native)"
NVYHSYDLPWFRTLSWYFLLCVNY [CDS2],2.93 ± 0.23,2.98 ± 0.28,,
CDDGGDGRGAVVPGAGLRRPTYTP [ZBTB22],4.35 ± 0.23,4.25 ± 0.26,,
KQNKQVLGYCLLLMLAGMGLHYIA [DNAJC4],2.23 ± 0.31,2.46 ± 0.37,,
SSSSSFGSGFGGGYGGGLGAGFGG [KRT16],2.65 ± 0.46,2.89 ± 0.3,,
HASGDASYSAGDSGDAAAQPAFTG [EPB41L3],5.32 ± 0.21,5.21 ± 0.21,,
LPDPNNYYHRRNEMTTTDDLDFKH [CPXM2],4.55 ± 0.23,4.7 ± 0.45,,
AMGHSQDRLTTFQENQARTHVLSK [LRRC45],4.7 ± 0.21,4.7 ± 0.28,,
KNSDGMEAAGVQIQMVNESLGYVR [CD207],3.83 ± 0.28,4.08 ± 0.13,,
EEDNVEESEEEGPWEPPVLPILTW [HDAC6],4.33 ± 0.29,4.62 ± 0.3,,
AAGVAAAFGAPIGGTLFSLEEGSS [CLCN6],3.94 ± 0.09,3.97 ± 0.17,,
KTRVDLKELGQSQKEQGLSDNILS [PDZK1],4.55 ± 0.1,4.88 ± 0.4,,
VAAAASRGADDAMESSKPGPVQVV [ATL3],5.03 ± 0.26,4.9 ± 0.25,,
QRQDPAAAQEGEDEGASAGQGPKP [GAGE1],5.62 ± 0.13,5.7 ± 0.14,,
TFFRLLLPEAPPKKFLTLGSKFRY [EPB41L3],2.23 ± 0.32,2.85 ± 1.4,,
EQLIEAINNGDFEAYTKICDPGLT [CAMK2D],4.06 ± 0.34,4.1 ± 0.23,,
FGATTNYGKDIVKACSLLDVAVHM [ZBED1],2.17 ± 0.37,2.1 ± 0.34,,
GKGRTASPINSPARGTPSPKRMPS [FSD1],5.13 ± 0.25,5.05 ± 0.32,,
TGIEESTDGMILGPEDLSYQIYDV [LARP4],3.76 ± 0.28,3.6 ± 0.29,,
VCVEHHTFFRLLLPEAPPKKFLTL [EPB41L3],,2.85 ± 0.42,,
FMLLLIFFAFLHCWLNAFAEMLRF [SOAT2],3.07 ± 0.18,2.88 ± 0.57,,
